Experimental data from patent US20230287402A1 (University of Washington, published 2023).

Target: T1, Di13_B2L2B4, cyclic pseudo-dihedral B component (construct number 2 of Table 3)
T1 construct: also called cyclic B
Assay: negative stain TEM, unlabelled construct

B1: A component of design #13 (D3 homooligomer, designed from 1d2t) (designed binder)
chain: MGHHHHHHGGLALVATGNDTTTKPDLYYLKNSEAINSLALLPPPPAVGSIAFLNDQAMYEQGRLLRNTERGKLAAEDANLSSGGVANAFSGAFGSPITEKDAPALHKLLTNMIEDAGDLATRSAKDHYMRIRPFAFYGVSTCNTTEQDKLSKNGSYPSGHTSIGWATALVLAEINPQRQNEILKRGYELGQSRVICGYHWQSDVDAARVVGSAVVATLHTNPEFQAQLIKAKIEFKQHQKEL
notes: also called component A; dihedral A
Q: Does B1 bind?
A: Result: binds
